Test results as given in US20130011427A1 (priority 2009, published 2013).

molecular target: HLA-A2.1 (HHD monochain) (human; murine); experiment: cell-based or functional assay

| Substance | IFN-γ ELISpot (SFC/10^6) |
| --- | --- |
| WNV E 68-85 peptide | 372 SFC/10^6 |
| WNV E 450-467 peptide | 205 SFC/10^6 |
| WNV NS1 228-245 peptide | 84 SFC/10^6 |
| WNV NS1 236-251 peptide | 78 SFC/10^6 |
| WNV NS2a 160-177 peptide | 63 SFC/10^6 |
| WNV NS2b 115-131 peptide | 108 SFC/10^6 |
| WNV NS3 70-87 peptide | 174 SFC/10^6 |
| WNV NS3 78-95 peptide | 150 SFC/10^6 |
| WNV NS3 85-100 peptide | 72 SFC/10^6 |
| WNV NS3 91-107 peptide | 156 SFC/10^6 |
| WNV NS3 98-115 peptide | 145 SFC/10^6 |
| WNV NS3 138-155 peptide | 159 SFC/10^6 |
| WNV NS3 146-162 peptide | 58 SFC/10^6 |
| WNV NS3 161-177 peptide | 56 SFC/10^6 |
| WNV NS3 183-200 peptide | 62 SFC/10^6 |
| WNV NS3 206-223 peptide | 108 SFC/10^6 |

| Substance | IFN-γ ELISpot (SFC/10^6) |
| --- | --- |
| WNV NS3 221-237 peptide | 26 SFC/10^6 |
| WNV NS3 241-258 peptide | 127 SFC/10^6 |
| WNV NS3 249-266 peptide | 79 SFC/10^6 |
| WNV NS3 265-282 peptide | 150 SFC/10^6 |
| WNV NS3 304-321 peptide | 94 SFC/10^6 |
| WNV NS3 317-333 peptide | 151 SFC/10^6 |
| WNV NS3 324-340 peptide | 117 SFC/10^6 |
| WNV NS3 336-352 peptide | 167 SFC/10^6 |
| WNV NS3 343-360 peptide | 55 SFC/10^6 |
| WNV NS3 359-376 peptide | 75 SFC/10^6 |
| WNV NS3 413-430 peptide | 130 SFC/10^6 |
| WNV NS3 515-532 peptide | 140 SFC/10^6 |
| WNV NS3 523-539 peptide | 57 SFC/10^6 |
| WNV NS3 530-547 peptide | 127 SFC/10^6 |
| WNV NS5 448-463 peptide | 26 SFC/10^6 |

molecular target: HLA-DR2 (chimeric HLA-DRA1*0101/DRB1*1501 with I-E domains) (human; murine) (UniProt Q8BHN5); experiment: cell-based or functional assay
Chain of UniProt Q8BHN5 (Q8BHN5 whole entry, stated change not applied): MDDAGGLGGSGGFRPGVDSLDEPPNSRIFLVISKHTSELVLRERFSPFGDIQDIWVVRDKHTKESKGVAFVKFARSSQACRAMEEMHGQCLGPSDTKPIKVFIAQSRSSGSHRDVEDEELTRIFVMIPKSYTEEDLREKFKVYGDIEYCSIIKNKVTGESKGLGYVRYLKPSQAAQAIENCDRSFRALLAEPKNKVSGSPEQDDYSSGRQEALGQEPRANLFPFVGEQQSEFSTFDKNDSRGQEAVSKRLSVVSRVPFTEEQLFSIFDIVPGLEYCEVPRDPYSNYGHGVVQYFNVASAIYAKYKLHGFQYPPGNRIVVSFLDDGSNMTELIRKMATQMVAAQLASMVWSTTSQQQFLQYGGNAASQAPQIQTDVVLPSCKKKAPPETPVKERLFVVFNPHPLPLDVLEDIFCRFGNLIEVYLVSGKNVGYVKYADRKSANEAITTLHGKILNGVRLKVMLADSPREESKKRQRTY

| IFN-γ ELISpot (SFC/10^6) | Substance |
| --- | --- |
| 134 SFC/10^6 | WNV NS1 161-178 peptide |
| 563 SFC/10^6 | WNV NS2a 6-23 peptide |
| 516 SFC/10^6 | WNV NS2a 52-66 peptide |
| 289 SFC/10^6 | WNV NS2a 80-97 peptide |
| 384 SFC/10^6 | WNV NS2a 128-145 peptide |
| 98 SFC/10^6 | WNV NS2a 136-154 peptide |
| 74 SFC/10^6 | WNV NS2a 211-229 peptide |
| 47 SFC/10^6 | WNV NS2b 39-56 peptide |
| 59 SFC/10^6 | WNV NS2b 59-75 peptide |
| 155 SFC/10^6 | WNV NS3 22-38 peptide |
| 59 SFC/10^6 | WNV NS3 176-192 peptide |
| 52 SFC/10^6 | WNV NS3 199-216 peptide |
| 123 SFC/10^6 | WNV NS3 460-475 peptide |
| 42 SFC/10^6 | WNV NS3 588-605 peptide |
| 89 SFC/10^6 | WNV NS4b 30-47 peptide |
| 62 SFC/10^6 | WNV NS4b 233-250 peptide |
| 168 SFC/10^6 | WNV NS5 212-229 peptide |
| 101 SFC/10^6 | WNV prM 114-130 peptide |
| 84 SFC/10^6 | WNV prM 144-161 peptide |

| Substance | IFN-γ ELISpot (SFC/10^6) |
| --- | --- |
| WNV E 450-467 peptide | 261 SFC/10^6 |
| WNV E 458-474 peptide | 51 SFC/10^6 |
| WNV NS3 161-177 peptide | 72 SFC/10^6 |
| WNV NS3 183-200 peptide | 55 SFC/10^6 |
| WNV NS3 206-223 peptide | 323 SFC/10^6 |
| WNV NS3 214-230 peptide | 146 SFC/10^6 |
| WNV NS3 249-266 peptide | 139 SFC/10^6 |
| WNV NS3 265-282 peptide | 169 SFC/10^6 |
| WNV NS3 455-469 peptide | 200 SFC/10^6 |
| WNV NS3 515-532 peptide | 95 SFC/10^6 |
| WNV NS3 523-539 peptide | 160 SFC/10^6 |
| WNV NS5 181-198 peptide | 122 SFC/10^6 |
| WNV NS5 598-615 peptide | 252 SFC/10^6 |

tested on: HLA-A2.1 (HLA-A*0201) Tg mice, CD4-depleted splenocytes; experiment: not given; assay type: cell-based, mouse

| Substance | T cell activation of HLA transgenic mice (SFC/10^6) IFN-γ ELISpot, A2 |
| --- | --- |
| ATPPGTSDPFPESNSPI [NS3 317-333] | 151 ± 18 SFC/10^6 |
| CYGGPWKLQHKWNGQDEV [NS3 78-95] | 150 ± 17 SFC/10^6 |
| DPFPESNSPISDLQTEI [NS3 324-340] | 117 ± 20 SFC/10^6 |
| ECHTCIYNMMGKREKK [NS5 448-463] | 26 ± 7 SFC/10^6 |
| EMGANFKASRVIDSRKSV [NS3 413-430] | 130 ± 15 SFC/10^6 |
| ERKNFLELLRTADLPVWL [NS3 530-547] | 127 ± 10 SFC/10^6 |
| GQDEVQMIVVEPGKNVK [NS3 91-107] | 156 ± 11 SFC/10^6 |
| GSVKEDRLCYGGPWKLQH [NS3 70-87] | 174 ± 13 SFC/10^6 |

tested on: HLA-DR2 (DRB1*1501) Tg mice, CD8-depleted splenocytes; experiment: not given; assay type: cell-based, mouse

| Substance | T cell activation of HLA transgenic mice (SFC/10^6) IFN-γ ELISpot, DR2 |
| --- | --- |
| AAQRRGRIGRNPSQV [NS3 455-469] | 200 ± 27 SFC/10^6 |
| DISWESDAEITGSSERV [NS2b 59-75] | 59 ± 12 SFC/10^6 |
| EIPDVLNSLAVAWMILRA [NS2a 128-145] | 384 ± 125 SFC/10^6 |
| ERKILRPRWIDARVYSDH [NS3 588-605] | 42 ± 4 SFC/10^6 |
| GEFLLDLRPATAWSLYAV [NS4b 30-47] | 89 ± 21 SFC/10^6 |
| GKTRRILPQIIKEAINRR [NS3 199-216] | 52 ± 6 SFC/10^6 |
| GLFNPMILAAGLIACDPNR [NS2a 211-229] | 74 ± 23 SFC/10^6 |
| GLTSTRMFLKVRESNTTE [NS1 161-178] | 134 ± 8 SFC/10^6 |
| GRIGRNPSQVGDEYCY [NS3 460-475] | 123 ± 4 SFC/10^6 |
| GWLSCLSITWTLIKNMEK [NS4b 233-250] | 62 ± 6 SFC/10^6 |
| IDPFQLGLLVVFLATQEV [NS2a 6-23] | 563 ± 41 SFC/10^6 |
| LAVAWMILRAITFTTTSNV [NS2a 136-154] | 98 ± 22 SFC/10^6 |
| MATFKIQPVFMVASFLKA [NS2a 80-97] | 289 ± 83 SFC/10^6 |
| MFAAFVISGKSTDMWIER [NS2b 39-56] | 47 ± 18 SFC/10^6 |
| NRRLRTAVLAPTRVVAA [NS3 214-230] | 146 ± 29 SFC/10^6 |
| PAGFEPEMLRKKQITVL [NS3 176-192] | 59 ± 8 SFC/10^6 |
| REDQRGSGQVVTYALNTF [NS5 598-615] | 252 ± 41 SFC/10^6 |
| SRNSTHEMYWVSRASGNV [NS5 212-229] | 168 ± 13 SFC/10^6 |
| STKATRYLVKTESWILR [prM 114-130] | 101 ± 33 SFC/10^6 |
| SWITQGLLGALLLWMGI [E 458-474] | 51 ± 4 SFC/10^6 |
| TDVLRYVILVGAAFA [NS2a 52-66] | 516 ± 9 SFC/10^6 |
| VKVLCPYMPKVIEKMELL [NS5 181-198] | 122 ± 40 SFC/10^6 |
| VYRIMTRGLLGSYQAGA [NS3 22-38] | 155 ± 22 SFC/10^6 |
